In PMC4783868 (Nature, 2015):

B1: P3 subunit of the influenza C/Johannesburg/1/1966 virus polymerase (FluPolC) (natural protein)
chain: MSKTFAEIAEAFLEPEAVRIAKEAVEEYGDHERKIIQIGIHFQVCCMFCDEYLSTNGSDRFVLIEGRKRGTAVSLQNELCKSYDLEPLPFLCDIFDREEKQFVEIGITRKADDSYFQSKFGKLGNSCKIFVFSYDGRLDKNCEGPMEEQKLRIFSFLATAADFLRKENMFNEIFLPDNEETIIEMKKGKTFLELRDESVPLPFQTYEQMKDYCEKFKGNPRELASKVSQMQSNIKLPIKHYEQNKFRQIRLPKGPMAPYTHKFLMEEAWMFTKISDPERSRAGEILIDFFKKGNLSAIRPKDKPLQGKYPIHYKNLWNQIKAAIADRTMVINENDHSEFLGGIGRASKKIPEISLTQDVITTEGLKQSENKLPEPRSFPRWFNAEWMWAIKDSDLTGWVPMAEYPPADNELEDYAEHLNKTMEGVLQGTNCAREMGKCILTVGALMTECRLFPGKIKVVPIYARSKERKSMQEGLPVPSEMDCLFGICVKSKSHLNKDDGMYTIITFEFSIREPNLEKHQKYTVFEAGHTTVRMKKGESVIGREVPLYLYCRTTALSKIKNDWLSKARRCFITTMDTVETICLRESAKAEENLVEKTLNEKQMWIGKKNGELIAQPLREALRVQLVQQFYFCIYNDSQLEGFCNEQKKILMALEGDKKNKSSFGFNPEGLLEKIEECLINNPMCLFMAQRLNELVIEASKRGAKFFKTD
B2: PB1 subunit of the influenza C/Johannesburg/1/1966 virus polymerase (FluPolC) (natural protein)
chain: MEINPYLMFLNNDVTSLISTTYPYTGPPPMSHGSSTKYTLETIKRTYDYSRTSVEKTSKVFNIPRRKFCNCLEDKDELVKPTGNVDISSLLGLAEMMEKRMGEGFFKHCVMEAETEILKMHFSRLTEGRQTYDWTSERNMPAATALQLTVDAIKETEGPFKGTTMLEYCNKMIEMLDWKEIKFKKVKTVVRREKDKRSGKEIKTKVPVMGIDSIKHDEFLIRALTINTMAKDGERGKLQRRAIATPGMIVRPFSKIVETVAQKICEKLKESGLPVGGNEKKAKLKTTVTSLNARMNSDQFAVNITGDNSKWNECQQPEAYLALLAYITKDSSDLMKDLCSVAPVLFCNKFVKLGQGIRLSNKRKTKEVIIKAEKMGKYKNLMREEYKNLFEPLEKYIQKDVCFLPGGMLMGMFNMLSTVLGVSTLCYMDEELKAKGCFWTGLQSSDDFVLFAVASNWSNIHWTIRRFNAVCKLIGINMSLEKSYGSLPELFEFTSMFFDGEFVSNLAMELPAFTTAGVNEGVDFTAAMSIIKTNMINNSLSPSTALMALRICLQEFRATYRVHPWDSRVKGGRMKIINEFIKTIENKDGLLIADGGKLMNNISTLHIPEEVLKFEKMDEQYRNRVFNPKNPFTNFDKTIDIFRAHGPIRVEENEAVVSTHSFRTRANRTLLNTDMRAMMAEEKRYQMVCDMFKSVFESADINPPIGAMSIGEAIEEKLLERAKMKRDIGAIEDSEYEEIKDIIRDAKKARLESR

Molecular target: T1, PB2 subunit of the influenza C/Johannesburg/1/1966 virus polymerase (FluPolC) (influenza C/Johannesburg/1/1966 virus, UniProt Q9IMP3)
T1 sequence: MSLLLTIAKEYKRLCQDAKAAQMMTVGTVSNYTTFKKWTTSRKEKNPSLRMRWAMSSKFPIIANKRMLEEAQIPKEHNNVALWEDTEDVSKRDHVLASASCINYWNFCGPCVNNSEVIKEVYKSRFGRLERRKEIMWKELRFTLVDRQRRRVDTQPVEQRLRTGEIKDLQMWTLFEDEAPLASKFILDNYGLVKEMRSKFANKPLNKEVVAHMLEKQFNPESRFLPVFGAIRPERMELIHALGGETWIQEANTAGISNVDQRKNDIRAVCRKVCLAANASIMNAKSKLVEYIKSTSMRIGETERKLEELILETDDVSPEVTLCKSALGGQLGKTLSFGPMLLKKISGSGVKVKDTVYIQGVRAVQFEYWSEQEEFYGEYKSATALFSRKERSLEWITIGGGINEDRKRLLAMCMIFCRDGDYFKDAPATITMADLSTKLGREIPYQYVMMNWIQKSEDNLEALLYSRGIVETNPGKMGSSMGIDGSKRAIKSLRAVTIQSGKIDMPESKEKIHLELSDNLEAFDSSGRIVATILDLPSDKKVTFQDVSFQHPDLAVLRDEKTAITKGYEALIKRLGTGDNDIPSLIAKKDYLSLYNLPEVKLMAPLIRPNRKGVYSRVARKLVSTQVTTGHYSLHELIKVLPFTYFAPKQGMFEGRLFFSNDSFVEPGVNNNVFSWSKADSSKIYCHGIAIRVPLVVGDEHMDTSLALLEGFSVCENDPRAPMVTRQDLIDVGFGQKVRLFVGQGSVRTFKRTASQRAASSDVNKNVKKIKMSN
Assay: crystal structure

Binder | binding result
B1 | binds
B2 | binds
